# Experimental data as given in US20120148607A1 (ARGEN X N V, published 2012).
# B1: 12G4 mAb (antibody, V domains shown)
# VH: QLQLVESGGGMAQPGGSLKLSCAASGFTFDDYAMTWVRQAPGKGLEWLSTISWNDINTYYAESMKDRFTISRDNAKNTLYLQMNSLESEDTAVYYCAKRRDNYYGTSGEYDYWGQGTQVTVSS
# VL: QSALTQPPSVSGTLGKTVTISCAGTSSDIGNYNYVSWYQQLPGTAPKLLIYEVNKRPSGIPDRFSGSKSGNTASLSISGLQSEDEADYYCASYRSSNNVVFGGGTKLTVL
# B2: 40B8 Fab (Fab, V domains shown)
# VH: EVQLVQPGAELRNPGASVKVSCKASGYTFTNYVIDWVRQAPGQGLEWMGRIDPENGGTRYAQKFQGRVTFTADTSTSTAYVELSNLRSEDTAVYYCARLEDYELAYDYWGQGTQVTVSS
# VL: DIVMTQTPSSVTASAGEKVTINCKSSQSVLLSSNQKNYLAWYQQRLGQSPRLLIYWASTRESGVPDRFSGSGSTTDFTLTISSFQPEDAAVYYCQQGVSFPLTFGQGTKVELK
# notes: Fab from the phage display library, tested as periplasmic extract
# B3: 20A11 Fab (Fab, V domains shown)
# VH: QVQLVESGGGLVQPGGSLRLSCAASGFTFDDYAMSWVRQAPGKGLEWVSAISWNGSSTYYAESMKGRFTISRDNAKNTLYLQMNSLKSEDTAVYYCAKDLIGSHDYWGQGTQVTVSS
# VL: QAVLTQPPSVSGTLGKTLTISCAGTSSDVGYGNYVSWYQQLPGTAPKLLIYAVSTRASGIPDRFSGSKSGNTASLTISGLQSEDEADYYCASYRSSNNYAFGAGTKLTVL
# notes: as for B2
# B4: 34H7 mAb (antibody, V domains shown)
# VH: ELQLVESGGALVQPGGSLRLSCVESGFTFSSYAMSWVRQAPGKGLEWVSGIYKGGGPKYANSVKGRFTISRDNAKNTLYLQMNSLKPEDTAVYYCAKSGYGSSLGDFGSWGQGTQVTVSS
# VL: QAGLTQLSSMSGSPGQTVTITCTGSSSNIGGGYYLSWYQHLPGTAPKLLIYSNINRASGVPDRFSGSTSGISASLTITGLQAEDEADYYCSSWDDSVSGPVFGGGTSLTVL
# B5: 34H7 Fab (Fab, V domains shown)
# VH: ELQLVESGGALVQPGGSLRLSCVESGFTFSSYAMSWVRQAPGKGLEWVSGIYKGGGPKYANSVKGRFTISRDNAKNTLYLQMNSLKPEDTAVYYCAKSGYGSSLGDFGSWGQGTQVTVSS
# VL: QAGLTQLSSMSGSPGQTVTITCTGSSSNIGGGYYLSWYQHLPGTAPKLLIYSNINRASGVPDRFSGSTSGISASLTITGLQAEDEADYYCSSWDDSVSGPVFGGGTSLTVL
# notes: as for B2
# B6: 53E3 (antibody, V domains shown)
# VH: QVQLQESGPGLVKPSQTLSLTCTVSGGSITTNYYYWSWIRQSPGKGLEWIGVIAYEGSTDYSPSLKSRVTISRDTSKNQFSLQLSSVTAEDTAVYYCARDVRVIATGWATANALDAWGQGTLVTVSS
# VL: QSVLTQPPSVSGSPGQTVTISCAGTSSDVGYGNYVSWYQQLPGTAPKLMIFAVSYRASGIPDRFSGSKSGNTASLTISGLQSEDEADYYCASYRSSNNAAVFGGGTKLTVL
# notes: also called germlined variant of 36C4
# B7: 36C4 Fab (Fab, V domains shown)
# VH: QVQLVESGPGLVKPSQTLSLTCAVSGGSITTNYYYWSWIRQSPGKGLEWMGVIAYDGSTDYSPSLKSRTSISRDTSKNQFSLQLSSVTPEDTAVYYCARDVRVIATGWATANALDAWGQGTLVTVSS
# VL: QSVLTQPPSVSGSPGKTVTISCAGTSSDVGYGNYVSWYQQLPGTAPKLLIFAVSYRASGIPDRFSGSKSGNTAFLTISGLQSEDEADYYCASYRSSNNAAVFGGGTHLTVL
# notes: as for B2
# B8: 55A12-54E (antibody, V domains shown)
# VH: QVQLVESGPGLVKPSQTLSLTCTVSGGSISTNYYYWSWIRQSPGKGLEWIGVIAYEGSTDYSPSLKSRVTISRDTSKNQFSLKLSSVTAEDTAVYYCARDVRVIATGWATANALDAWGQGTLVTVSS
# VL: QSALTQPPSVSGSPGQSVTISCAGTSSDVGYGNYVSWYQQPPGTAPKLLIFAVSYRASGVPDRFSGSKSGNTASLTISGLQAEDEADYYCASYRSSNNAAVFGGGTKLTVL
# notes: as for B6
# B9: 53A11 (antibody, V domains shown)
# VH: QVQLQESGPGLVKPSQTLSLTCTVSGGSITTNYYYWSWIRQSPGKGLEWIGVIAYDASTDYSPSLKSRVTISRDTSKNQFSLQLSSVTAEDTAVYYCARDVRVIATGWATANALDAWGQGTLVTVSS
# VL: QSVLTQPPSVSGSPGQTVTISCAGTSSDVGYGNYVSWYQQPPGTAPKLMIFAVSYRASGIPDRFSGSKSGNTAFLTISGLQSEDEADYYCASYRSSNNAAVFGGGTKLTVL
# notes: as for B6
# B10: 38H10 mAb (antibody, V domains shown)
# VH: EVQLVQPGVELRNPGASVKVSCKASGYIFTMNSIDWVRQAPGQGLEWMGRIDPEDGGTKYAQKFQGRVTFTADTSTSTAYVELNSLRSEDTAVYYCARVDDYYLGYDYWGQGTQVTVSS
# VL: EIVMTQSPSSVTASAGEKVTINCKSSQSVLWRSNQKNYLAWYQQRLGQSPRLLISWASIRESGVPDRFSGSGSTTDFTLTISSFQPEDAAVYYCQQGYSFPYTFGSGTRLEIK
# B11: 38H10 Fab (Fab, V domains shown)
# VH: EVQLVQPGVELRNPGASVKVSCKASGYIFTMNSIDWVRQAPGQGLEWMGRIDPEDGGTKYAQKFQGRVTFTADTSTSTAYVELNSLRSEDTAVYYCARVDDYYLGYDYWGQGTQVTVSS
# VL: EIVMTQSPSSVTASAGEKVTINCKSSQSVLWRSNQKNYLAWYQQRLGQSPRLLISWASIRESGVPDRFSGSGSTTDFTLTISSFQPEDAAVYYCQQGYSFPYTFGSGTRLEIK
# notes: as for B2
# B12: murine 5D5 antibody (antibody, V domains shown)
# VH: QVQLQQSGPELVRPGASVKMSCRASGYTFTSYWLHWVKQRPGQGLEWIGMIDPSNSDTRFNPNFKDKATLNVDRSSNTAYMLLSSLTSADSAVYYCATYGSYVSPLDYWGQGTSVTVSS
# VL: DIMMSQSPSSLTVSVGEKVTVSCKSSQSLLYTSSQKNYLAWYQQKPGQSPKLLIYWASTRESGVPDRFTGSGSGTDFTLTITSVKADDLAVYYCQQYYAYPWTFGGGTKLEIK
# B13: 20F1 mAb (antibody, V domains shown)
# VH: EVQVQESGPGLVKPSQTLSLTCTVSGGSMTGNYYAWSWIRQPPGKGLEWMGVIAYDGSTYYSPSLKSRTSISRDTSKNQFSLQLSSVSPEDTAVYYCARGPGWYSGSRNDYWGQGTQVTVSS
# VL: QSALTQPPSVSGSPGKTVTISCTGTNSDVGYGNYVSWYQQLPGMAPKLLIYDVNRRASGIADRFSGSKSGNTASLTISGLQSEDEGDYHCASYRSANNAVFGGGTHLFVL
# Tests used:
# [1] = molecular target: T1, recombinant dimeric c-Met (R&D systems, 358-MT/CF) (human, UniProt P08581 25-932); test: competition ELISA, mAb against 25 ng/ml biotinylated HGF on captured dimeric c-Met
# T1 construct: Bought product; also called Fc-Met; recombinant c-Met
# Description: (§1) Competition with N-terminally biotinylated HGF for binding to immobilized c-Met was performed using an ELISA-based competition assay. Five μg/ml mouse anti-His antibodies (Serotech) was immobilized on a maxisorb plate and, after blocking with 1% casein in PBS for 2 h, 100 ng/ml recombinant dimeric c-Met was added and incubated for 1 h at room temperature. After washing, dilutions of the antibodies were added and allowed to bind to the captured c-Met for 30 minutes, before 25 ng/ml N-terminally biotinylated HGF (R&D systems, 294-HGN/CF) was added. Biotinylated HGF was incubated at room temperature for 1 h before washing. Horseradish-conjugated streptavidin (strep-HRP) was added and incubated for an additional hour. TMB was added and the plate read at 620 nm. An isotype control (hIgG1λ) was included as a control as well as murine 5D5 antibody. Competition was expressed as percentage competition as compared to the controls (strep-HRP only or hIgG1λ) and plotted against the concentration of antibodies. An IC₅₀ was calculated using GraphPad Prism (Table 10). Antibodies 13E6 and 20A11 only displaced HGF partially (about 50%), which may be related to the epitope these two mAbs recognize on the c-Met.
# [2] = molecular target: T2, Decoy c-Met (extracellular domain of human c-Met) (human, UniProt P08581 25-932); test: binding ELISA, human c-Met (Decoy)
# T2 construct: extracellular domain; also called Decoy Met; monomeric Decoy Met
# [3] = molecular target: T3, Rhesus (Maccaca mulatta, US20090191580-5) c-Met ECD (Rhesus (Maccaca mulatta)); test: binding ELISA, Rhesus c-Met ECD immobilised (1 µg/ml)
# T3 construct: extracellular domain; also called Rhesus c-Met ECD; Rhesus ECD
# Description: Cross reactivity to Rhesus (Maccaca mulatta, US20090191580_{—}5) c-Met ECD and mouse c-Met (R&D systems cat no: 527-ME) was performed in a binding ELISA. Rhesus ECD was immobilized in PBS (1 μg/ml) on a 96-well maxisorb plate and incubated at 4° C. over night. After blocking with 1% casein in PBS, the antibodies in dilutions starting with 10 μg/ml were added and allowed to bind for 1 h at room temperature. The plate was washed and a goat anti-human Fcγ antibody (Jackson) was added and incubated for 1 h at room temperature. After washing, TMB was added and the plate read at 620 nm
# [4] = molecular target: T1, recombinant dimeric c-Met (R&D systems, …); test: SPR, Fab-containing periplasmic extract over immobilised c-Met, dissociation 2 min
# Description: HGF-competing clones were sequenced in the VH and the VL regions and divided into VH families based on the sequence of the CDR3 in the VH. These VH families were further tested with Surface Plasmon Resonance (SPR) for dissociation (koff) and recognition of SEMA-PSI or the extracellular domain of c-Met (Decoy). Between 1000-2000 RU of dimeric c-Met, SEMA-PSI or Decoy c-Met was immobilised on a VIA chip with amine coupling in sodium acetate buffer (pH 4.5). The Fab-containing peris were added with a flow rate of 30 μl/min and Fabs were considered to be binding if an increase of the RU was observed. The koff was measured for 2 minutes for each sample.
# [5] = molecular target: T1, recombinant dimeric c-Met (R&D systems, …); test: competition ELISA: recombinant dimeric c-Met (100 ng/ml) captured by coated mouse anti-His antibody; antibody dilutions 30 min, then 25 ng/ml N-terminally biotinylated HGF (the competitor); strep-HRP, TMB, 620 nm; percent competition against the controls
# Description: as §1
# [6] = molecular target: T2, Decoy c-Met (extracellular domain of …); test: SPR: mAb (0.5 µg/ml) kept 1 h at the given temperature, run over a CM-5 chip coupled with 15,000-17,000 RU Decoy c-Met; slope between 100 and 130 s at 30 µl/min in percent of the sample kept at 4 °C
# [7] = molecular target: T1, recombinant dimeric c-Met (R&D systems, …); test: SPR, periplasmic Fab over Fc-Met (around 3000 RU) on CM5 chip
# Description: The clones were then tested for their dissociation constants by Surface Plasmon Resonance. Around 3000 RU of Fc-Met was immobilized directly onto a CM5 chip to obtain a clear binding profile from the periplasmic extracts. Clones with an improved off-rate were sent for sequencing.
# T2 sequence (P08581 25-932): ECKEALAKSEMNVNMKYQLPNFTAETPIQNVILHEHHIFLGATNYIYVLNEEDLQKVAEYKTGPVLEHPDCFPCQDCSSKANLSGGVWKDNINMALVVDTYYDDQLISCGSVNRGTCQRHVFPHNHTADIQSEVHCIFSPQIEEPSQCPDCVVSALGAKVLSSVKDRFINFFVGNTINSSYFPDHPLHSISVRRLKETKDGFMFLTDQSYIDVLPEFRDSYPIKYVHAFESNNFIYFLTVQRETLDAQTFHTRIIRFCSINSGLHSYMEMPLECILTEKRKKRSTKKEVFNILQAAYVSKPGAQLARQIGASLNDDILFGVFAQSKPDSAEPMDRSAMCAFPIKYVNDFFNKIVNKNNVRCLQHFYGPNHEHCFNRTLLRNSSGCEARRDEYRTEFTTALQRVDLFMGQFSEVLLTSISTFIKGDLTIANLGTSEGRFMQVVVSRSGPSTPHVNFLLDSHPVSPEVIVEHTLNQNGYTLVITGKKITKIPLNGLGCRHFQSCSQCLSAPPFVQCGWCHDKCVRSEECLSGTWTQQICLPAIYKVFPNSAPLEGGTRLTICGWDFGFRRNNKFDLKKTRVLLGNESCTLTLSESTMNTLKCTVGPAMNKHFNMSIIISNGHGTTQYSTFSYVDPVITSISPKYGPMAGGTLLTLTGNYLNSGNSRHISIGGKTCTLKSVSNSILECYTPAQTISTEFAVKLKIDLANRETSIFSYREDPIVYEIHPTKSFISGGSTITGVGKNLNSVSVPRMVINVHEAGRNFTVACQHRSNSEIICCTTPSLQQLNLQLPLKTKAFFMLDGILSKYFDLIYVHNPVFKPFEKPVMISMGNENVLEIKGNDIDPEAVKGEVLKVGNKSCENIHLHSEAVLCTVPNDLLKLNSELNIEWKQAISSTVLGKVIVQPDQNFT
# T1 sequence (P08581 25-932 limits assumed): as the sequence (P08581 25-932) above
binder,measurement,setting,value
B1,IC50,[1],0.26 nM
same,EC50,[2],0.42 nM
same,EC50,[3],0.34 nM
B2,koff,[4],0.0013 s⁻¹
B3,koff,[4],0.0009 s⁻¹
B4,IC50 (read off the curve),[5],~0.2 nM
B5,koff,[4],0.0016 s⁻¹
B6,binding result,[6],binds
B7,koff,[4],0.00064 s⁻¹
B8,binding result,[6],binds
B9,binding result,[6],binds
B10,IC50 (read off the curve),[5],~0.03 nM
same,EC50,[2],0.19 nM
same,EC50,[3],0.17 nM
B11,koff,[4],0.0012 s⁻¹
same,koff,[7],0.0005 s⁻¹
B12,IC50 (read off the curve),[5],~0.8 nM
B13,IC50,[1],0.36 nM
